In assay [1] the test system is GFP or RFP expression in E. coli MG1655. Kind of assay: E. coli CRISPRi GFP/RFP repression assay. The settings on record: 7-amino acid TEV cleavage site (ENLYFQ/S) as linker; active TEV vs dTEV. In kind it is cell-based. The procedure: Assays were performed using methods like those described by Oakes et al. (2016).
Endpoint Assay: Cells were picked in biological triplicate into 96 well plates containing 500 μL EZ MOPS plus Carb and CM. Plates were grown in 37° C. shakers for twelve hours. Next, cells were diluted 1:1000 in 500 μL EZ MOPS plus Carb, CM, IPTG and aTc. Two hundred nM aTc was used to induce Cas9-CPs or ProCas9s and 50 μM IPTG levels was used to induce the proteases in a 2 mL deep well blocks and shaken at 750 rpm at 37° C. After an eight-twelve-hour induction and growth period, 20 μL of cells were added to 80 μL of water and put into a 96-well microplate reader (Tecan M1000) at 37° C. and read immediately. Each well was measured for optical density at 600 nm and GFP or RFP fluorescence. GFP expression was normalized by dividing it with OD600. In the case of the time course assays, 150 μL of the 1:1000 dilution was used and placed into a black walled clear bottom plate (3631-Corning) and directly into the Tecan M1000 for a 130× 600 s kinetic cycle of reading. For E. coli single cell analysis, cells from the endpoint time course were run on a Sony SH800 to capture 100,000 events per sample.

The next assay deals with PCSK9 locus. Nature of the assay: editing at the endogenous PCSK9 locus (T7E1 assay, TIDE). The settings on record: guide sgPCSK9-4, WNV protease vs dTEV; A549 and HAP1. In kind it is cell-based, human.
Assay [2] has as its system GFP reporter in HEK-RT1 cells. Kind of assay: rapid mammalian genome editing reporter assay (HEK-RT1, GFP disruption). In kind it is cell-based, human. For orientation: A reporter such as luciferase makes a cellular process visible.
Excerpt: To establish a rapid and quantitative way to reliably assess genome editing efficiency from various CRISPR-Cas constructs in mammalian cells, a fluorescence-based reporter assay was built. […] To quantify this effect, HEK293T cells were stably transduced with a retroviral vector (LMP-Pten.1524) constitutively expressing GFP (Fellmann et al., 2013), and established monoclonal derivatives.
Specifically, inducible monoclonal HEK293T-based genome editing reporter cells, referred to as “HEK-RT1,” were established in a two-step procedure. In the first step, puromycin resistant monoclonal HEK-RT3-4 reporter cells were generated (Park et al., 2018). In brief, HEK293T human embryonic kidney cells were transduced at low-copy with the amphotropic pseudotyped RT3GEPIR-Ren.713 retroviral vector (Fellmann et al., 2013), comprising an all-in-one Tet-On system enabling doxycycline-controlled GFP expression. After puromycin (2.0 μg/ml) selection of transduced HEK239 Ts, 36 clones were isolated and individually assessed for i) growth characteristics, ii) homogeneous morphology, iii) sharp fluorescence peaks of doxycycline (1 μg/ml) inducible GFP expression, iv) relatively low fluorescence intensity to favor clones with single-copy reporter integration, and v) high transfectability.
Since HEK-RT3-4 are puromycin resistant, in the second step, monoclonal HEK-RT1 and analogous sister reporter cell lines were derived by transient transfection of HEK-RT3-4 cells with a pair of vectors encoding Cas9 and guide RNAs targeting puromycin (sgPuro5, sgPuro6), followed by identification of monoclonal derivatives that are puromycin sensitive. In total, eight clones were isolated and individually assessed for i) growth characteristics, ii) homogeneous morphology, iii) doxycycline (1 μg/ml) inducible and reversible GFP fluorescence, and v) puromycin and hygromycin B sensitivity. […] The HEK-RT1 cell line was chosen as rapid mammalian genome editing reporter system for all further assays.
A guide RNA targeting the GFP fluorescence reporter (sgGFP9) was compared to a non-targeting control (sgNT). […] GFP expression in HEK-RT1 reporter cells was induced for 24-48 hour using doxycycline (1 μg/ml; Sigma-Aldrich), at the indicated days post-editing.

Description for PCSK9 locus: Unless otherwise noted, error bars indicate the standard deviation of triplicates, and significance was assessed by comparing samples to their respective controls using unpaired, two-tailed t tests (alpha=0.05). Genome editing quantification using TIDE was carried out as recommended (Brinkman et al., 2014). In brief, indels ranging from −10 to +10 nucleotides were quantified. Parental cells were used as reference for normalization. When reporting TIDE editing efficiencies, only indels with p values <0.01 in at least one replicate were considered true.

B1: CP199: Cas9 circular permutant, new start site aa 199 (SEQ ID NO:44); linker varies by experiment (protein)
chain: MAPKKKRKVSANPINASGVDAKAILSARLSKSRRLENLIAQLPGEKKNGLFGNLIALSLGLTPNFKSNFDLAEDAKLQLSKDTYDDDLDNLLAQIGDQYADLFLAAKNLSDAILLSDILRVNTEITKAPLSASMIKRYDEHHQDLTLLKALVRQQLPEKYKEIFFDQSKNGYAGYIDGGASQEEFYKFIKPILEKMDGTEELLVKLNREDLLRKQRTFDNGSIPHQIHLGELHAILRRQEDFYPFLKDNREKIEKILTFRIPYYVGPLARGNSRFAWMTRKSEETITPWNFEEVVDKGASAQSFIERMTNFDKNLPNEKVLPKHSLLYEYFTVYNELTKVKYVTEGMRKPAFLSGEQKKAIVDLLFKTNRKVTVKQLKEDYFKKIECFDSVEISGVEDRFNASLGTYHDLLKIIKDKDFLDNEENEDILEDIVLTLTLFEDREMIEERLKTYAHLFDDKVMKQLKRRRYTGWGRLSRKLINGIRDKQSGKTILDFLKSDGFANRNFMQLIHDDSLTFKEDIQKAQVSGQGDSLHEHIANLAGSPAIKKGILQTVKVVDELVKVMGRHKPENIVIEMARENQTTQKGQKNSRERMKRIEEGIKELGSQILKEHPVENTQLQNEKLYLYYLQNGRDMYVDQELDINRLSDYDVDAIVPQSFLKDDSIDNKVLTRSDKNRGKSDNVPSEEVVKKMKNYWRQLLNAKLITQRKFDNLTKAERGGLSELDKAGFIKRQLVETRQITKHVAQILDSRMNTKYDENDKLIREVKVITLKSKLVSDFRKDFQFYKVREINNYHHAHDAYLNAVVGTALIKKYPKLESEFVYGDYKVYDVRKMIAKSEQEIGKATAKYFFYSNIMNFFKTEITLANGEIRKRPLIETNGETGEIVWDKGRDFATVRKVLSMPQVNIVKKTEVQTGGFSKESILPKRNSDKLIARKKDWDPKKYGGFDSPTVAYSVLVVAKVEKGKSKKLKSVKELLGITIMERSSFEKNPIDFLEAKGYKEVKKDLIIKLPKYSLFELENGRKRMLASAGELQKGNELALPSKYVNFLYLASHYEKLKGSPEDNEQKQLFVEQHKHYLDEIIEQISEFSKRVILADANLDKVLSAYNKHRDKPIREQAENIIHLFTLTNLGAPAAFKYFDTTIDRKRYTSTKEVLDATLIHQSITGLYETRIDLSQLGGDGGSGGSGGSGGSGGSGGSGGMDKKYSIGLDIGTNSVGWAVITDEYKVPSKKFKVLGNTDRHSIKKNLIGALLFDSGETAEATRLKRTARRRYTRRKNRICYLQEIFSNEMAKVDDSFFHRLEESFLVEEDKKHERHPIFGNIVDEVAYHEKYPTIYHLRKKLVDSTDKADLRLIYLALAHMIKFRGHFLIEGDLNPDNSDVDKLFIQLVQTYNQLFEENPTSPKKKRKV
Turning to B1, the “GFP repression activity with TEV protease” value in assay [1] is listed as “switched from completely off to fully on”.

B2: EF1a-ProCas9Flavi: ProCas9Flavi expressed from the strong full-length EF1a promoter, stably integrated lentiviral vector (protein)
chain: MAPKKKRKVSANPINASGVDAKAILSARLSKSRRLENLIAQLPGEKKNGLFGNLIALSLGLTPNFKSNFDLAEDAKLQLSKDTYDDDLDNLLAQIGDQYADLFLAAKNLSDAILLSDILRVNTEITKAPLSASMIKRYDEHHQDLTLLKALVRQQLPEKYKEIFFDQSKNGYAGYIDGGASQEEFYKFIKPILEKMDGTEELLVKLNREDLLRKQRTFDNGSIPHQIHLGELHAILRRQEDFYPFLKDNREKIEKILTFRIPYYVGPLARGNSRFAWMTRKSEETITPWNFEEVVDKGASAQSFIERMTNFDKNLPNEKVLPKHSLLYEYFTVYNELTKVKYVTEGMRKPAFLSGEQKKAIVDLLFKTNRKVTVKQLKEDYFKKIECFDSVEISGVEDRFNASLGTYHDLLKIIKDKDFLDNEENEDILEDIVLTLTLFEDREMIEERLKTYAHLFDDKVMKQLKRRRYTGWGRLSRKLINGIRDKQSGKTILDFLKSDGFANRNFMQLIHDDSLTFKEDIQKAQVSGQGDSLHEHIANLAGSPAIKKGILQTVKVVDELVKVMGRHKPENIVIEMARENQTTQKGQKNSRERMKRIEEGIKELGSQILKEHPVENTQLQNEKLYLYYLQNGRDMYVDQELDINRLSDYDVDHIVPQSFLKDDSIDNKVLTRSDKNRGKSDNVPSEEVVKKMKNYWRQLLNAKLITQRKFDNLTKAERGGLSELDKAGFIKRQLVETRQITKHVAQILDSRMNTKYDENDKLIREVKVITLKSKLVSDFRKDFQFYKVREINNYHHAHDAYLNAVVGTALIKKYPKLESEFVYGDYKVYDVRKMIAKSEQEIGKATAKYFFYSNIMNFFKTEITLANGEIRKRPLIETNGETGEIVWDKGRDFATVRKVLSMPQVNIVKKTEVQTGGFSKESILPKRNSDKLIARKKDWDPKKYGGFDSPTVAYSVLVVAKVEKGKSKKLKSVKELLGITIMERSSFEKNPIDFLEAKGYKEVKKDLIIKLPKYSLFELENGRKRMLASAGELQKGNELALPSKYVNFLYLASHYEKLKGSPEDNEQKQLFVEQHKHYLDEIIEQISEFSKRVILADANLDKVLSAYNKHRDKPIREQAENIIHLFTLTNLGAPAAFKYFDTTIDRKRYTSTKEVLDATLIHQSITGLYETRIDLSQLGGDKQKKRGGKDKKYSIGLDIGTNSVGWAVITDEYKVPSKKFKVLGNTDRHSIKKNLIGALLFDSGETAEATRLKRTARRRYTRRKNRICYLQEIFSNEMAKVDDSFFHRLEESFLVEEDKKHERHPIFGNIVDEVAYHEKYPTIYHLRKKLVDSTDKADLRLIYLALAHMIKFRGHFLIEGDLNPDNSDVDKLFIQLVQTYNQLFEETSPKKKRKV
With B2, in the assay on PCSK9 locus, the “protease-sensitive editing at the PCSK9 locus (T7E1)” value is “clear genome editing in the presence of WNV protease”. Besides, the genome editing result is “about 35%” in assay [2] (stable expression of WNV protease, out to 8 days) and “over 25%” in assay [2] (stably transduced WNV protease (FIG. 4F)). Moreover, the “genome editing efficiency after transient protease transfection” value in assay [2] (stably integrated ProCas9, ZIKV, WNV proteases, mTagBFP2-positive cells) is reported as “highest genome editing efficiency”.

These data come from patent US20230043813A1, “METHODS FOR TARGETED CELL DEPLETION” (The Regents of the University of California, priority 2019, published 2023).
